Experimental data reported in US20130066054A1 (UCB, published 2013).
Values joined by “and” are separate entries in the source; they are usually repeats but may differ in a detail not shown here. Equal values may be shown once.

T1: OX40 (UniProt P43489 29-214)
T1 construct: also called O × 40
T1 sequence (looked up): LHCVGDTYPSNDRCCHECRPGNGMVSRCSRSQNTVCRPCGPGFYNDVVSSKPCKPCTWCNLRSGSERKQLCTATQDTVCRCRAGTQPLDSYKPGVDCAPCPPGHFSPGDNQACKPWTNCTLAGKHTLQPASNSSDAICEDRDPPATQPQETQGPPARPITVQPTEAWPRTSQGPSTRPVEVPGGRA


What was measured:
[1] = target: T2, human serum albumin (human, UniProt P02768 25-609); test: SPR (Biacore 3000), Fab-dsFv captured, antigen injected, 1:1 fit;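 also: capture antibody amine-coupled on chip, 3 min antigen association then 20 min dissociation, antigen titrated, reference flow-cell and buffer blanks subtracted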
T2 construct: also called HSA
Description: (§1) Covalent immobilisation of the capture antibody was achieved by standard amine coupling chemistry.
(§2) Each assay cycle consisted of firstly capturing the Fab-dsFv using a 1 min injection, before an association phase consisting of a 3 min injection of antigen, after which dissociation was monitored for 20 min. After each cycle, the capture surface was regenerated with 2×1 min injections of 40 mM HCl followed by 30 s of 5 mM NaOH. The flow rates used were 10 μl/min for capture, 30 μl/min for association and dissociation phases, and 10 μl/min for regeneration.
(§3) For kinetic assays, a titration of antigen was performed, a blank flow-cell was used for reference subtraction and buffer-blank injections were included to subtract instrument noise and drift.

[2] = target: T1, OX40; test: as above
Description: as §1, §2, §3

Binder	Kd [1]	koff [1]	kon [1]	Kd [2]	koff [2]	kon [2]
A26Fab-(3xG4S)-dsFv645 (bispecific antibody, 645 Fv disulfide between Cys44 of SEQ ID NO 227 and Cys100 of SEQ ID NO 44 (Kabat); both cysteines are already in the letters, Fab-dsFv: anti-OX40 A26 Fab with the anti-HSA 645 disulfide-stabilised Fv at the C-termini; The asterisk of 'A26-645std*' is not explained; also called A26-645std; A26-645std*) heavy: EVQLVESGGGLVQPGGSLRLSCAASGFTFTNYGIHWIRQAPGKGLEWVASISPSGGLTYYRDSVKGRFTISRDDAKNSPYLQMNSLRAEDTAVYYCATGGEGIFDYWGQGTLVTVSSASTKGPSVFPLAPSSKSTSGGTAALGCLVKDYFPEPVTVSWNSGALTSGVHTFPAVLQSSGLYSLSSVVTVPSSSLGTQTYICNVNHKPSNTKVDKKVEPKSCSGGGGSGGGGSGGGGSEVQLLESGGGLVQPGGSLRLSCAVSGIDLSNYAINWVRQAPGKCLEWIGIIWASGTTFYATWAKGRFTISRDSTTVYLQMNSLRAEDTAVYYCARTVPGYSTAPYFDLWGQGTLVTVSS light: DIQMTQSPSSLSASVGDRVTITCRATQSIYNALAWYQQKPGKAPKLLIYNANTLHTGVPSRFSASGSGTDSTLTISSLQPEDFATYYCQQYYDYPLTFGGGTKVEIKRTVAAPSVFIFPPSDEQLKSGTASVVCLLNNFYPREAKVQWKVDNALQSGNSQESVTEQDSKDSTYSLSSTLTLSKADYEKHKVYACEVTHQGLSSPVTKSFNRGECSGGGGSGGGGSGGGGSDIVMTQSPSSVSASVGDRVTITCQSSPSVWSNFLSWYQQKPGKAPKLLIYEASKLTSGVPSRFKGSGSGTDFTLTISSLQPEDFATYYCGGGYSSISDTTFGCGTKVEIK	3.57 nM and 4.11 nM	0.000461 s⁻¹ and 0.000421 s⁻¹	129000 M⁻¹ s⁻¹ and 103000 M⁻¹ s⁻¹	0.328 nM and 0.33 nM and 0.463 nM and 0.46 nM	0.000149 s⁻¹ and 0.000191 s⁻¹	452000 M⁻¹ s⁻¹ and 413000 M⁻¹ s⁻¹
A26-645 Lys145Cys K (bispecific antibody, Surface cysteine mutant of A26-645 (Kabat numbering); also called K145C CK; mutation 9) heavy: EVQLVESGGGLVQPGGSLRLSCAASGFTFTNYGIHWIRQAPGKGLEWVASISPSGGLTYYRDSVKGRFTISRDDAKNSPYLQMNSLRAEDTAVYYCATGGEGIFDYWGQGTLVTVSSASTKGPSVFPLAPSSKSTSGGTAALGCLVKDYFPEPVTVSWNSGALTSGVHTFPAVLQSSGLYSLSSVVTVPSSSLGTQTYICNVNHKPSNTKVDKKVEPKSCSGGGGSGGGGSGGGGSEVQLLESGGGLVQPGGSLRLSCAVSGIDLSNYAINWVRQAPGKCLEWIGIIWASGTTFYATWAKGRFTISRDSTTVYLQMNSLRAEDTAVYYCARTVPGYSTAPYFDLWGQGTLVTVSS light: DIQMTQSPSSLSASVGDRVTITCRATQSIYNALAWYQQKPGKAPKLLIYNANTLHTGVPSRFSASGSGTDSTLTISSLQPEDFATYYCQQYYDYPLTFGGGTKVEIKRTVAAPSVFIFPPSDEQLKSGTASVVCLLNNFYPREACVQWKVDNALQSGNSQESVTEQDSKDSTYSLSSTLTLSKADYEKHKVYACEVTHQGLSSPVTKSFNRGECSGGGGSGGGGSGGGGSDIVMTQSPSSVSASVGDRVTITCQSSPSVWSNFLSWYQQKPGKAPKLLIYEASKLTSGVPSRFKGSGSGTDFTLTISSLQPEDFATYYCGGGYSSISDTTFGCGTKVEIK	1.89 nM	0.000259 s⁻¹	137000 M⁻¹ s⁻¹	0.241 nM and 0.24 nM	0.00011 s⁻¹	457000 M⁻¹ s⁻¹
A26-645 Asn210Cys K (bispecific antibody, 645 Fv disulfide between Cys44 of SEQ ID NO 227 and Cys100 of SEQ ID NO 44 (Kabat); both cysteines are already in the letters, Surface cysteine mutant of A26-645 (Kabat numbering); also called N210C CK; mutation 12) heavy: EVQLVESGGGLVQPGGSLRLSCAASGFTFTNYGIHWIRQAPGKGLEWVASISPSGGLTYYRDSVKGRFTISRDDAKNSPYLQMNSLRAEDTAVYYCATGGEGIFDYWGQGTLVTVSSASTKGPSVFPLAPSSKSTSGGTAALGCLVKDYFPEPVTVSWNSGALTSGVHTFPAVLQSSGLYSLSSVVTVPSSSLGTQTYICNVNHKPSNTKVDKKVEPKSCSGGGGSGGGGSGGGGSEVQLLESGGGLVQPGGSLRLSCAVSGIDLSNYAINWVRQAPGKCLEWIGIIWASGTTFYATWAKGRFTISRDSTTVYLQMNSLRAEDTAVYYCARTVPGYSTAPYFDLWGQGTLVTVSS light: DIQMTQSPSSLSASVGDRVTITCRATQSIYNALAWYQQKPGKAPKLLIYNANTLHTGVPSRFSASGSGTDSTLTISSLQPEDFATYYCQQYYDYPLTFGGGTKVEIKRTVAAPSVFIFPPSDEQLKSGTASVVCLLNNFYPREAKVQWKVDNALQSGNSQESVTEQDSKDSTYSLSSTLTLSKADYEKHKVYACEVTHQGLSSPVTKSFCRGECSGGGGSGGGGSGGGGSDIVMTQSPSSVSASVGDRVTITCQSSPSVWSNFLSWYQQKPGKAPKLLIYEASKLTSGVPSRFKGSGSGTDFTLTISSLQPEDFATYYCGGGYSSISDTTFGCGTKVEIK	1.6 nM	0.000284 s⁻¹	178000 M⁻¹ s⁻¹	0.229 nM and 0.23 nM	0.000111 s⁻¹	483000 M⁻¹ s⁻¹

More lines, in order of falling Kd [1], values ahead:

Kd [1]	koff [1]	kon [1]	Kd [2]	koff [2]	kon [2]	Binder
2.28 nM	0.000342 s⁻¹	150000 M⁻¹ s⁻¹	0.234 nM and 0.23 nM	0.00012 s⁻¹	515000 M⁻¹ s⁻¹	A26-645 Lys107Cys K (bispecific antibody, Surface cysteine mutant of A26-645 in the 645 Fv light domain (Kabat numbering); also called K107C 645 Fv light; mutation 15) heavy: EVQLVESGGGLVQPGGSLRLSCAASGFTFTNYGIHWIRQAPGKGLEWVASISPSGGLTYYRDSVKGRFTISRDDAKNSPYLQMNSLRAEDTAVYYCATGGEGIFDYWGQGTLVTVSSASTKGPSVFPLAPSSKSTSGGTAALGCLVKDYFPEPVTVSWNSGALTSGVHTFPAVLQSSGLYSLSSVVTVPSSSLGTQTYICNVNHKPSNTKVDKKVEPKSCSGGGGSGGGGSGGGGSEVQLLESGGGLVQPGGSLRLSCAVSGIDLSNYAINWVRQAPGKCLEWIGIIWASGTTFYATWAKGRFTISRDSTTVYLQMNSLRAEDTAVYYCARTVPGYSTAPYFDLWGQGTLVTVSS light: DIQMTQSPSSLSASVGDRVTITCRATQSIYNALAWYQQKPGKAPKLLIYNANTLHTGVPSRFSASGSGTDSTLTISSLQPEDFATYYCQQYYDYPLTFGGGTKVEIKRTVAAPSVFIFPPSDEQLKSGTASVVCLLNNFYPREAKVQWKVDNALQSGNSQESVTEQDSKDSTYSLSSTLTLSKADYEKHKVYACEVTHQGLSSPVTKSFNRGECSGGGGSGGGGSGGGGSDIVMTQSPSSVSASVGDRVTITCQSSPSVWSNFLSWYQQKPGKAPKLLIYEASKLTSGVPSRFKGSGSGTDFTLTISSLQPEDFATYYCGGGYSSISDTTFGCGTKVEIC
2.2 nM	0.000337 s⁻¹	153000 M⁻¹ s⁻¹	0.325 nM and 0.33 nM	0.000155 s⁻¹	477000 M⁻¹ s⁻¹	A26-645 Glu143Cys K (bispecific antibody, Surface cysteine mutant of A26-645 (Kabat numbering); also called E143C CK; mutation 8) heavy: EVQLVESGGGLVQPGGSLRLSCAASGFTFTNYGIHWIRQAPGKGLEWVASISPSGGLTYYRDSVKGRFTISRDDAKNSPYLQMNSLRAEDTAVYYCATGGEGIFDYWGQGTLVTVSSASTKGPSVFPLAPSSKSTSGGTAALGCLVKDYFPEPVTVSWNSGALTSGVHTFPAVLQSSGLYSLSSVVTVPSSSLGTQTYICNVNHKPSNTKVDKKVEPKSCSGGGGSGGGGSGGGGSEVQLLESGGGLVQPGGSLRLSCAVSGIDLSNYAINWVRQAPGKCLEWIGIIWASGTTFYATWAKGRFTISRDSTTVYLQMNSLRAEDTAVYYCARTVPGYSTAPYFDLWGQGTLVTVSS light: DIQMTQSPSSLSASVGDRVTITCRATQSIYNALAWYQQKPGKAPKLLIYNANTLHTGVPSRFSASGSGTDSTLTISSLQPEDFATYYCQQYYDYPLTFGGGTKVEIKRTVAAPSVFIFPPSDEQLKSGTASVVCLLNNFYPRCAKVQWKVDNALQSGNSQESVTEQDSKDSTYSLSSTLTLSKADYEKHKVYACEVTHQGLSSPVTKSFNRGECSGGGGSGGGGSGGGGSDIVMTQSPSSVSASVGDRVTITCQSSPSVWSNFLSWYQQKPGKAPKLLIYEASKLTSGVPSRFKGSGSGTDFTLTISSLQPEDFATYYCGGGYSSISDTTFGCGTKVEIK
1.76 nM	0.000275 s⁻¹	157000 M⁻¹ s⁻¹	0.27 nM	0.000124 s⁻¹	461000 M⁻¹ s⁻¹	A26-645 Cys233Ser H (bispecific antibody, 645 Fv disulfide between Cys44 of SEQ ID NO 227 and Cys100 of SEQ ID NO 44 (Kabat); both cysteines are already in the letters, Control mutant of A26-645 without the heavy chain's interchain cysteine (Kabat numbering); also called C233S CH1; mutation 5) heavy: EVQLVESGGGLVQPGGSLRLSCAASGFTFTNYGIHWIRQAPGKGLEWVASISPSGGLTYYRDSVKGRFTISRDDAKNSPYLQMNSLRAEDTAVYYCATGGEGIFDYWGQGTLVTVSSASTKGPSVFPLAPSSKSTSGGTAALGCLVKDYFPEPVTVSWNSGALTSGVHTFPAVLQSSGLYSLSSVVTVPSSSLGTQTYICNVNHKPSNTKVDKKVEPKSSSGGGGSGGGGSGGGGSEVQLLESGGGLVQPGGSLRLSCAVSGIDLSNYAINWVRQAPGKCLEWIGIIWASGTTFYATWAKGRFTISRDSTTVYLQMNSLRAEDTAVYYCARTVPGYSTAPYFDLWGQGTLVTVSS light: DIQMTQSPSSLSASVGDRVTITCRATQSIYNALAWYQQKPGKAPKLLIYNANTLHTGVPSRFSASGSGTDSTLTISSLQPEDFATYYCQQYYDYPLTFGGGTKVEIKRTVAAPSVFIFPPSDEQLKSGTASVVCLLNNFYPREAKVQWKVDNALQSGNSQESVTEQDSKDSTYSLSSTLTLSKADYEKHKVYACEVTHQGLSSPVTKSFNRGECSGGGGSGGGGSGGGGSDIVMTQSPSSVSASVGDRVTITCQSSPSVWSNFLSWYQQKPGKAPKLLIYEASKLTSGVPSRFKGSGSGTDFTLTISSLQPEDFATYYCGGGYSSISDTTFGCGTKVEIK
1.7 nM	0.000282 s⁻¹	166000 M⁻¹ s⁻¹	0.278 nM and 0.28 nM	0.000122 s⁻¹	437000 M⁻¹ s⁻¹	A26-645 Cys214Ser K (bispecific antibody, 645 Fv disulfide between Cys44 of SEQ ID NO 227 and Cys100 of SEQ ID NO 44 (Kabat); both cysteines are already in the letters, Control mutant of A26-645 without the light chain's interchain cysteine (Kabat numbering); also called C214S CK; mutation 13) heavy: EVQLVESGGGLVQPGGSLRLSCAASGFTFTNYGIHWIRQAPGKGLEWVASISPSGGLTYYRDSVKGRFTISRDDAKNSPYLQMNSLRAEDTAVYYCATGGEGIFDYWGQGTLVTVSSASTKGPSVFPLAPSSKSTSGGTAALGCLVKDYFPEPVTVSWNSGALTSGVHTFPAVLQSSGLYSLSSVVTVPSSSLGTQTYICNVNHKPSNTKVDKKVEPKSCSGGGGSGGGGSGGGGSEVQLLESGGGLVQPGGSLRLSCAVSGIDLSNYAINWVRQAPGKCLEWIGIIWASGTTFYATWAKGRFTISRDSTTVYLQMNSLRAEDTAVYYCARTVPGYSTAPYFDLWGQGTLVTVSS light: DIQMTQSPSSLSASVGDRVTITCRATQSIYNALAWYQQKPGKAPKLLIYNANTLHTGVPSRFSASGSGTDSTLTISSLQPEDFATYYCQQYYDYPLTFGGGTKVEIKRTVAAPSVFIFPPSDEQLKSGTASVVCLLNNFYPREAKVQWKVDNALQSGNSQESVTEQDSKDSTYSLSSTLTLSKADYEKHKVYACEVTHQGLSSPVTKSFNRGESSGGGGSGGGGSGGGGSDIVMTQSPSSVSASVGDRVTITCQSSPSVWSNFLSWYQQKPGKAPKLLIYEASKLTSGVPSRFKGSGSGTDFTLTISSLQPEDFATYYCGGGYSSISDTTFGCGTKVEIK
